Residue numbers refer to the chain shown, from its start.

The values below come from patent US20180112000A1 (MILTENYI BIOTEC, published 2018).

To fix the notation:
B1: huCD28_v4 Fab (humanized) (Fab, V domains shown, not shown: small tags and cut ends)
VH: QVQLQESGPGLVKPSETLSLTCTVSGFSLTSYGVHWIRQPPGKGLEWLGVIWAGGSTNYNSSLKSRVTISKDTSKNQVSLKLSSVTAADTAVYYCARDKRAPGKLYYGYPDYWGQGTTLTVSS
VL: DIVMTQSPDSLAVSLGERATINCRASESVEYYVTSLMQWYQQKPGQPPKLLIYAASNVESGVPARFSGSGSGTDFTLTISPLQAEDVAVYYCQQTRKVPSTFGGGTKLEIKR
notes: Humanized 15E8 Fab expressed in E. coli periplasm
B2: huCD28_v1 Fab (humanized) (Fab, V domains shown, not shown: small tags and cut ends)
VH: B1 VH with I37V, S62A, K64M, V67L
VL: B1 VL with A64D, P81S
notes: as for B1
B3: huCD28_v2 Fab (humanized) (Fab, V domains shown, not shown: small tags and cut ends)
VH: B1 VH with I37V, L48I, S61P, V78F
VL: B1 VL with R24K, A25S, M37L, V58R, A64D, P81S
notes: as for B1
B4: huCD28_v3 Fab (humanized) (Fab, V domains shown, not shown: small tags and cut ends)
VH: B1 VH with S79F, A88D
VL: B1 VL
notes: as for B1
B5: chCD28 Fab (chimeric) (Fab, V domains shown)
VH: QVQLKESGPGLVAPSQSLSITCTVSGFSLTSYGVHWVRQPPGKGLEWLGVIWAGGSTNYNSALMSRLSISKDNSKSQVFLKMNSLQTDDTAMYYCARDKRAPGKLYYGYPDYWGQGTTLTVSS
VL: DIVLTQSPASLAVSLGQRATISCRASESVEYYVTSLMQWYQQKPGQPPKLLIYAASNVESGVPARFSGSGSGTDFSLNIHPVEEDDIAMYFCQQTRKVPSTFGGGTKLEIKR
notes: Fab expressed in E. coli periplasm; not shown: Fabs were purified by IMAC

One experiment addresses T1, recombinant CD28 antigen (extracellular domain, expressed in mammalian cells) (UniProt P10747 19-152, limits assumed).
T1 construct: extracellular domain; Immobilized on a CM5 chip by amine coupling; also called T-cell-specific surface glycoprotein CD28
Nature of the experiment: SPR (Biacore), CD28 ECD on CM5 chip, Fab as analyte.
Procedure: (§1) Therefore, recombinant CD28 antigen (extracellular domain, expressed in mammalian cells) was immobilized on a CM5 chip by standard amine coupling. The Fab variants were used as analytes in HBS-EP buffer (0.01 M HEPES pH 7.4, 0.15 M NaCl, 3 mM EDTA, 0.005% v/v Surfactant P20) in a concentration of 50 μg/mL. Evaluation was conducted with the BIAeval Software using an 1:1 binding mass transfer model.
B1: the “affinity [%] (by KD, chCD28 Fab set to 100%)” value amounted to 60%.
On the same count and under the same terms, next, B2: 76%.
The same measure, in the same setting: the figure for B3 is 35%; for B4 it is 62%.
In the case of B5, the “affinity [%] (by KD, chCD28 Fab set to 100%)” value came out at 100%.

The next experiment has as its target T1, recombinant CD28 antigen (extracellular …). Put plainly: SPR (Biacore), CD28 ECD on CM5 chip, Fab as analyte at 50 ug/mL, 1:1 binding mass transfer model.
Procedure: as §1
As for B1, the Kd came out at 53 nM, the koff worked out at 0.021 s⁻¹ and the kon amounted to 400000 M⁻¹ s⁻¹.
On the same counts, the results for B2 are 42 nM, 0.08 s⁻¹ and 1.9e+06 M⁻¹ s⁻¹.
In the same order, the values of B3 are 92 nM, 0.055 s⁻¹ and 600000 M⁻¹ s⁻¹.
In the same order, the values of B4 are 52 nM, 0.026 s⁻¹ and 500000 M⁻¹ s⁻¹.
B5: the Kd was 32 nM, the koff amounted to 0.032 s⁻¹ and the kon stood at 1e+06 M⁻¹ s⁻¹.
